Measurements as given in publication PMC8011160, “GroEL protein of the Leptospira spp. interacts with host proteins and induces cytokines secretion on macrophages” (BMC Microbiology, 2021).

B1: GroEL protein of Leptospira interrogans (recombinant, His-tagged) (natural protein, UniProt P61438 1-546, looked up)
chain: MAKDIEYNETARRKLLEGVNKLANAVKVTLGPKGRNVVIDKKFGAPTITKDGVTVAKEIELEDPLENMGAQMVKEVSTKTNDVAGDGTTTATILAQSIINEGLKNVTAGANPMSLKKGIDKAVTAAVESIQKRAVKIENKKDIANVASISANNDNTIGNLIADAMDKVGKDGVITVEEAKSIETTLDVVEGMQFDRGYISPYMVTDAESMVATLNDPFILIYDKKISSMKDLIHILEKVAQAGKPLVIISEEVEGEALATIVVNTLRKTISCVAVKAPGFGDRRKSMLEDIAILTGGQVISEDLGMKLENTTLQMLGRANKVTVDKENTTIIEGKGQTKEIQGRIGQIKKQIEDTTSEYDREKLQERLAKLAGGVAVIHVGAATEVEMKEKKARVEDALSATRAAVEEGIVPGGGLTLLKAQEAVGSLKLDGDEATGAKIIFRALEEPIRMITSNAGLEGSVIVEHAKAKKGNEGFNALTMVWEDMIQAGVVDPAKVVRSALQNAASIGSMILTTEVTITDKPDKDAPNPMAGMGGGGMGGMGGMM
notes: GroEL (chaperonin 60, HSP60) of L. interrogans serovar Copenhageni strain Fiocruz L1-130, GenBank AAS69936.1, 60 kDa; Cloned BamHI/HindIII into the vector pAE; as far as I recall pAE adds an N-terminal His6 tag; also called chaperonin 60; Cpn60; source: LPS removed on Detoxi-Gel
B2: truncated form of leptospiral immunoglobulin-like protein B (LigBC, amino acids 631-1156) (domain or fragment)
chain: AEIKNTSGSKGITNTLTPGSSEISAALGSIKSSKVILKVTPAQLISIAVTPINPSVAKGLIRQFKATGTYTDHSVQDVTALATWSSSNPGKAMVNNVTGSVTTVATGNTNIKATIDSISGSSVLNVTPALLTSIEITPTINSITHGLTKQFKATGIFSDKSTQNLTQLVTWISSDPSKIEIENTSGKKGIATASKLGSSNIKAVYKFIQSSPIPITVTDLKLKSITISPSSSSIAKGLTQQFKAIGTFIDGSEQEITNLVTWYSSKSDVAPINNAANAKGLATALSIGSSNISAIYNSISSNKINFNVSAATLDSIKINPVNNNIAKGLTQQYTALGVYSDSTIQDISDSVTWSSSNSDSISISNSTETKGKATALQIGNSKITATYNSISENIDITVSAATLSSISISPINTNINATVSKQFFAVGTYSDGTKADLTSSVTWSSSNKSQAKVSNASKTKGLVTGIASGNSIITATYGSVSGNTILTVNKTDTIAPTVQSVVSLSPTTIQVVYSESINNKEALDLS
notes: leptospiral immunoglobulin-like protein B (LigB), GenBank AAS69085, amino acids 631-1156, 56 kDa; half of immunoglobulin-like repeat 7 plus domains 8 to 12; source: LPS removed on Detoxi-Gel

Key:
Test in all cases: ELISA; host protein coated on microtiter wells; recombinant protein varied from 0 to 2 μM; absorbance with BSA subtracted; apparent Kd from the half-maximal binding concentration (GraphPad Prism 6)
Conditions in all cases: both partners purified
[1] = molecular target: T1, collagen Type IV (purified from basement membrane of Engelbreth-Holm-Swarm mouse sarcoma) (mouse, UniProt P02463 173-1669; P08122 184-1707)
T1 construct: collagen type IV alpha 1 chain, mouse; collagen type IV alpha 2 chain, mouse; also called collagen IV; source: bought: Sigma-Aldrich (purified from basement membrane of Engelbreth-Holm-Swarm mouse sarcoma)
T1 sequence (P02463 173-1669, chain 1 of 2): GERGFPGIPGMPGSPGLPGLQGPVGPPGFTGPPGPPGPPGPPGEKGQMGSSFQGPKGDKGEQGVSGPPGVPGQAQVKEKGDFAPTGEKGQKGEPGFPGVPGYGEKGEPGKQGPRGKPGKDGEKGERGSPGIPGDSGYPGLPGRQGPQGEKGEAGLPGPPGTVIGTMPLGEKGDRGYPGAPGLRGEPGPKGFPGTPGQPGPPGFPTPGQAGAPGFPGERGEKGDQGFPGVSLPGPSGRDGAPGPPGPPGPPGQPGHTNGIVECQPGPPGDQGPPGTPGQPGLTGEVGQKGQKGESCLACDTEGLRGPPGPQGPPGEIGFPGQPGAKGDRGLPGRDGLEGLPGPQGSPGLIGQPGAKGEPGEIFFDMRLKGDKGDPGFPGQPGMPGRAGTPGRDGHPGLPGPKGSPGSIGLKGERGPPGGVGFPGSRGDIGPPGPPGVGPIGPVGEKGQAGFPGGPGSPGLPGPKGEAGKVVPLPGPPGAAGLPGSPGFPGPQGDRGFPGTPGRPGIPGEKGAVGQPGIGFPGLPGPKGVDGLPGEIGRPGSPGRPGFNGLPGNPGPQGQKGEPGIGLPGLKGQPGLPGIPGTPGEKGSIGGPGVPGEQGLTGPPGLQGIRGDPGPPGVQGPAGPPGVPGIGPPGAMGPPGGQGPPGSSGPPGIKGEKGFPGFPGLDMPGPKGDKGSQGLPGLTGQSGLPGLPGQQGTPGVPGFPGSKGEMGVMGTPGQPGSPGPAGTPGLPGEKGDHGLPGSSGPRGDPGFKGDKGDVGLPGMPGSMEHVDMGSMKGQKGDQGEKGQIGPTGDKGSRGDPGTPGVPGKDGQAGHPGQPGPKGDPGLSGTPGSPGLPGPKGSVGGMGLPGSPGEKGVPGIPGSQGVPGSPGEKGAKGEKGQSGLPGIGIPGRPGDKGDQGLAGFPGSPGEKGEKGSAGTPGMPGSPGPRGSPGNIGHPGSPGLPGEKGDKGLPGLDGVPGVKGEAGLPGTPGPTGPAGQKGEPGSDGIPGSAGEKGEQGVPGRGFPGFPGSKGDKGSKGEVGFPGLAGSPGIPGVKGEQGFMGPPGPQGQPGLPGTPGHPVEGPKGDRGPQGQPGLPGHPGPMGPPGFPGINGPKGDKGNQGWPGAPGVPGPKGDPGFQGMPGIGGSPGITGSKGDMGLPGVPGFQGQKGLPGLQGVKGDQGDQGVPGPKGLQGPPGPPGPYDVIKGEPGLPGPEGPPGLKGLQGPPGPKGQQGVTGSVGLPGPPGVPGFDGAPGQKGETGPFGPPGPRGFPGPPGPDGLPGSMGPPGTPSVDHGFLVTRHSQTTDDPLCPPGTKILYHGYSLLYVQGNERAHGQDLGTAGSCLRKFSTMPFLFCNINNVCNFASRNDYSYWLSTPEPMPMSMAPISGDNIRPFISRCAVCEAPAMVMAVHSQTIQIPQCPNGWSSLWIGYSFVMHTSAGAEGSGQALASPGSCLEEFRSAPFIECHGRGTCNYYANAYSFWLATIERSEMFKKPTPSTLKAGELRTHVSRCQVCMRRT
T1 sequence (P08122 184-1707, chain 2 of 2): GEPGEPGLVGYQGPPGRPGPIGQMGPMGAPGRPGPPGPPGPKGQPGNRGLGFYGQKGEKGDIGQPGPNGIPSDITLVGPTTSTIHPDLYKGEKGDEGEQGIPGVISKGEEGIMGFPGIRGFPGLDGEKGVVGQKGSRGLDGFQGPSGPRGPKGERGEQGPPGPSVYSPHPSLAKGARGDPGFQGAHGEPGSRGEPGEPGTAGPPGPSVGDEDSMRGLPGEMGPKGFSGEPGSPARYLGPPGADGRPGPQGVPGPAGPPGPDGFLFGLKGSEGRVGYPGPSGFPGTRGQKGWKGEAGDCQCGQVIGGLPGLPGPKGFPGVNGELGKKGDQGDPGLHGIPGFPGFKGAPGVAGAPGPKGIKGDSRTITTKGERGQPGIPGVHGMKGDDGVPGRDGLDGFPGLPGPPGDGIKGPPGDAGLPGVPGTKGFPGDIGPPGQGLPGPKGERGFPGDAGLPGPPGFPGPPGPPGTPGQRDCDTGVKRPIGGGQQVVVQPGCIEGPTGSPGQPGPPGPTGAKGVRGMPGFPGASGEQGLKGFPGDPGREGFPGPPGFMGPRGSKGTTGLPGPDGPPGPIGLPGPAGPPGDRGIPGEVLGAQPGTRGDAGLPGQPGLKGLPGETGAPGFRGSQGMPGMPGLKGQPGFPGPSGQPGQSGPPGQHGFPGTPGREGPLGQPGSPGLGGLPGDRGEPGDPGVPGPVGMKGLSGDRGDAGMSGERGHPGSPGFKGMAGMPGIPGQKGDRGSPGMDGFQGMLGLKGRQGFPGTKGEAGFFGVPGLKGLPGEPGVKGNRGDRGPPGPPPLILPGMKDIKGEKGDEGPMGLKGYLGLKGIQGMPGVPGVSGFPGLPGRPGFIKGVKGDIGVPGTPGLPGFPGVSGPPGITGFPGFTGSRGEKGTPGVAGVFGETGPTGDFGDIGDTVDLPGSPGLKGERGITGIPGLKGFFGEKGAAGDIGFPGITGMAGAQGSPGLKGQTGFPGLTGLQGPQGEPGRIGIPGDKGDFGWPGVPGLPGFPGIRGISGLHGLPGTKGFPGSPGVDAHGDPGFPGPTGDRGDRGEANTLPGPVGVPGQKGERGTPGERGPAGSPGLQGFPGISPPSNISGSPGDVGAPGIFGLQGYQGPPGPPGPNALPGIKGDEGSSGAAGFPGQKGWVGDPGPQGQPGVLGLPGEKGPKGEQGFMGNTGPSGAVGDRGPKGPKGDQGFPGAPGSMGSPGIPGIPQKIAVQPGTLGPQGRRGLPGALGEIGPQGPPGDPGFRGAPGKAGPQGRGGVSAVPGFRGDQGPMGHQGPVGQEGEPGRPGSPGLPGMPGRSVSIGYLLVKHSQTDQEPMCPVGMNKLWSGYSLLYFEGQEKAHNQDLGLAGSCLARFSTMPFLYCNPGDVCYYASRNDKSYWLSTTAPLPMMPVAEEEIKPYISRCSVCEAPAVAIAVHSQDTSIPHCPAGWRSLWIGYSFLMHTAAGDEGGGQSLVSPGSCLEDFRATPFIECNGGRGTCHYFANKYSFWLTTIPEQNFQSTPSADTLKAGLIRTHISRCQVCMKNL

[2] = molecular target: T2, laminin (purified from basement membrane of Engelbreth-Holm-Swarm mouse sarcoma) (mouse, UniProt P19137 25-3083; P02469 22-1786; P02468 34-1607)
T2 construct: source: bought: Sigma-Aldrich (purified from basement membrane of Engelbreth-Holm-Swarm mouse sarcoma)

[3] = molecular target: T3, elastin (purified from bovine neck ligament) (bovine, UniProt P04985 27-747)
T3 construct: elastin, bovine, purified from neck ligament; an insoluble protein; Insoluble material of tissue; used coated on wells (ELISA) and as a solid in the co-sedimentation; also called insoluble elastin; source: bought: Sigma-Aldrich (purified from bovine neck ligament)
T3 sequence (looked up): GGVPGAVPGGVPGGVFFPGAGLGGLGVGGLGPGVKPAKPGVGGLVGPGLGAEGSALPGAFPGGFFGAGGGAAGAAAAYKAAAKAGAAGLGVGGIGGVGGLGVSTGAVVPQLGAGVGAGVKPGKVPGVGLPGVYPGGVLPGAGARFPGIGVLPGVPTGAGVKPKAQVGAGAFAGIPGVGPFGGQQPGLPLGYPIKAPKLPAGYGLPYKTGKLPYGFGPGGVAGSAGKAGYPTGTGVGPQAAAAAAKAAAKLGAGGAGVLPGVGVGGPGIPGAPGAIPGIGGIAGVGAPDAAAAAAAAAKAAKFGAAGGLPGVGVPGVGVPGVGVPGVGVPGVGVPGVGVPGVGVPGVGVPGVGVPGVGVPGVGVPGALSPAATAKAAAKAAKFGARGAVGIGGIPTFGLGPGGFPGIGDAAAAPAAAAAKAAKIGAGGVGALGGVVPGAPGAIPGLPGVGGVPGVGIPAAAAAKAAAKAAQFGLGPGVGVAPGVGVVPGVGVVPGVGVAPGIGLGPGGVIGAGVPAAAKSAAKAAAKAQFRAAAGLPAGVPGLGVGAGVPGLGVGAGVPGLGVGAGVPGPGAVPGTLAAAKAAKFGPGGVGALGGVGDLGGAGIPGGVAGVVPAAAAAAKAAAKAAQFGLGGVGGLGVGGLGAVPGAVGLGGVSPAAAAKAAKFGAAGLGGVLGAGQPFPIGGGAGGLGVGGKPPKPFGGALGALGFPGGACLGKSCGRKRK

[4] = molecular target: T4, fibrinogen (purified from human plasma) (human, UniProt P02671-2 20-644; P02675 31-491; P02679-2 27-437)
T4 construct: fibrinogen alpha chain, human; fibrinogen beta chain, human; fibrinogen gamma chain, human; source: bought: Sigma-Aldrich (purified from human plasma)
T4 sequence (looked up) 1: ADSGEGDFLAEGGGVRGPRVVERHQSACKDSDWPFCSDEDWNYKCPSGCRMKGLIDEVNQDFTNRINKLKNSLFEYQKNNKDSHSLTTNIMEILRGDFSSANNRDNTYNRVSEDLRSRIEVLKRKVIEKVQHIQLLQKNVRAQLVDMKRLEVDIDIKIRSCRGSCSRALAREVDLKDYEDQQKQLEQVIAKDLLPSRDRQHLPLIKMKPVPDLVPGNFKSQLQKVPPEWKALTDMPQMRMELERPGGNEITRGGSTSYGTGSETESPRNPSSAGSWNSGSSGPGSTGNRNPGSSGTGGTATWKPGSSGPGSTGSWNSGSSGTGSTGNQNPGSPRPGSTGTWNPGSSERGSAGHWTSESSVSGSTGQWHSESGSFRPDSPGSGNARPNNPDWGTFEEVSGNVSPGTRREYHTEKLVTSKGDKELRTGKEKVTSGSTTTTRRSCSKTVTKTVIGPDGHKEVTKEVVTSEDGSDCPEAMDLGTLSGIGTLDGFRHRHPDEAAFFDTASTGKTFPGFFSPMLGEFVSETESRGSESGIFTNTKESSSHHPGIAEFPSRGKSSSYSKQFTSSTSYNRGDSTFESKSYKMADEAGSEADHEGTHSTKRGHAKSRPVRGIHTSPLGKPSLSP
T4 sequence (looked up) 2: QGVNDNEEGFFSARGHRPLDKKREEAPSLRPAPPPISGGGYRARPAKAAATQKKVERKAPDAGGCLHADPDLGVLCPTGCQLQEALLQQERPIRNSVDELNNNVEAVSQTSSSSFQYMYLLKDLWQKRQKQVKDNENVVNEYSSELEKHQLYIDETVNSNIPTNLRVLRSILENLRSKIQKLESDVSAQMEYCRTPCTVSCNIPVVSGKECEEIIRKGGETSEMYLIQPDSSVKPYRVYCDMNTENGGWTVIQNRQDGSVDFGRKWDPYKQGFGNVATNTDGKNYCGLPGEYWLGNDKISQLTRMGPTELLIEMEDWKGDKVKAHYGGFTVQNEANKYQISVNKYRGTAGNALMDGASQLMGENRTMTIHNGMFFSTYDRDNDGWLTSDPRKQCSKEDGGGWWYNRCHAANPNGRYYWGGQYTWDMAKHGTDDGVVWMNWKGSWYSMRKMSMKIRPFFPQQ
T4 sequence (looked up) 3: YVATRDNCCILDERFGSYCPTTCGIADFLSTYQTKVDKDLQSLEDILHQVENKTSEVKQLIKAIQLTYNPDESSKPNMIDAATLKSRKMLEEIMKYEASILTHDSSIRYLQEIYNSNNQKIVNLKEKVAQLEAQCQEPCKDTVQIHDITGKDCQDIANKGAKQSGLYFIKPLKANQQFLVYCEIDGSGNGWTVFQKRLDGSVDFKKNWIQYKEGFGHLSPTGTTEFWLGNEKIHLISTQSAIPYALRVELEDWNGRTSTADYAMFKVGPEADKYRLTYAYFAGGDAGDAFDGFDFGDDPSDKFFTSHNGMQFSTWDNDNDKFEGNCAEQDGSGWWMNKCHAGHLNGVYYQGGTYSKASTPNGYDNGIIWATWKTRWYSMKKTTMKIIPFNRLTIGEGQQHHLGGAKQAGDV

[5] = molecular target: T5, collagen Type I (purified from rat tail) (rat, UniProt P02454 152-1207; P02466 86-1125)
T5 construct: collagen type I alpha 1 chain, rat; collagen type I alpha 2 chain, rat; also called collagen I; source: bought: Sigma-Aldrich (purified from rat tail)
T5 sequence (P02454 152-1207, chain 1 of 2): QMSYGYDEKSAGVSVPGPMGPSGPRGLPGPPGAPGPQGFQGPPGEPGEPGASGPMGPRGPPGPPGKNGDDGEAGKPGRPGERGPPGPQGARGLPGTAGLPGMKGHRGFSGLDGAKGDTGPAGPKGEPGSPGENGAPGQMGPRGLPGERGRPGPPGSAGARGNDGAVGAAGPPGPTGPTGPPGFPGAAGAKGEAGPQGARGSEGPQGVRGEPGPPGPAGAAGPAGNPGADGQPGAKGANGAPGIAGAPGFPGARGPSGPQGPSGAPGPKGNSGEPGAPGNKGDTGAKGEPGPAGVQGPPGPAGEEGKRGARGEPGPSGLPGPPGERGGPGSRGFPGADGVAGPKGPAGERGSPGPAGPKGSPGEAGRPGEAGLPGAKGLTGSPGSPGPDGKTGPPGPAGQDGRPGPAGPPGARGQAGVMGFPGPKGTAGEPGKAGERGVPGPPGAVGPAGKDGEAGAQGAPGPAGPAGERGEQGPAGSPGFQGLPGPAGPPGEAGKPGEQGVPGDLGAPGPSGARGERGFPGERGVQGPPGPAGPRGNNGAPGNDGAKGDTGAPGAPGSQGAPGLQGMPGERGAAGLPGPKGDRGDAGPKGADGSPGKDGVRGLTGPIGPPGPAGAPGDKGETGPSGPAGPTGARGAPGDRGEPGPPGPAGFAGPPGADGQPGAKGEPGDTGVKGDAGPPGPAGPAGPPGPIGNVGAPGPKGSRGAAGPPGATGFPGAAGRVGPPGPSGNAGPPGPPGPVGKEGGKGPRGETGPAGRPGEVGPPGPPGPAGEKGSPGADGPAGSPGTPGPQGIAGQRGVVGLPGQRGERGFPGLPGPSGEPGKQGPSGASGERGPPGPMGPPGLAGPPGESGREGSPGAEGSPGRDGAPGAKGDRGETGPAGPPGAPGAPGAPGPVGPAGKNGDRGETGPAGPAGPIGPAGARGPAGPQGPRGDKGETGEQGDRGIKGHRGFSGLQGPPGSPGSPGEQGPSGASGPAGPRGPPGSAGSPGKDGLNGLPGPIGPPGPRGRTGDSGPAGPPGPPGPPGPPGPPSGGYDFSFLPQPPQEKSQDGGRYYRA
T5 sequence (P02466 86-1125, chain 2 of 2): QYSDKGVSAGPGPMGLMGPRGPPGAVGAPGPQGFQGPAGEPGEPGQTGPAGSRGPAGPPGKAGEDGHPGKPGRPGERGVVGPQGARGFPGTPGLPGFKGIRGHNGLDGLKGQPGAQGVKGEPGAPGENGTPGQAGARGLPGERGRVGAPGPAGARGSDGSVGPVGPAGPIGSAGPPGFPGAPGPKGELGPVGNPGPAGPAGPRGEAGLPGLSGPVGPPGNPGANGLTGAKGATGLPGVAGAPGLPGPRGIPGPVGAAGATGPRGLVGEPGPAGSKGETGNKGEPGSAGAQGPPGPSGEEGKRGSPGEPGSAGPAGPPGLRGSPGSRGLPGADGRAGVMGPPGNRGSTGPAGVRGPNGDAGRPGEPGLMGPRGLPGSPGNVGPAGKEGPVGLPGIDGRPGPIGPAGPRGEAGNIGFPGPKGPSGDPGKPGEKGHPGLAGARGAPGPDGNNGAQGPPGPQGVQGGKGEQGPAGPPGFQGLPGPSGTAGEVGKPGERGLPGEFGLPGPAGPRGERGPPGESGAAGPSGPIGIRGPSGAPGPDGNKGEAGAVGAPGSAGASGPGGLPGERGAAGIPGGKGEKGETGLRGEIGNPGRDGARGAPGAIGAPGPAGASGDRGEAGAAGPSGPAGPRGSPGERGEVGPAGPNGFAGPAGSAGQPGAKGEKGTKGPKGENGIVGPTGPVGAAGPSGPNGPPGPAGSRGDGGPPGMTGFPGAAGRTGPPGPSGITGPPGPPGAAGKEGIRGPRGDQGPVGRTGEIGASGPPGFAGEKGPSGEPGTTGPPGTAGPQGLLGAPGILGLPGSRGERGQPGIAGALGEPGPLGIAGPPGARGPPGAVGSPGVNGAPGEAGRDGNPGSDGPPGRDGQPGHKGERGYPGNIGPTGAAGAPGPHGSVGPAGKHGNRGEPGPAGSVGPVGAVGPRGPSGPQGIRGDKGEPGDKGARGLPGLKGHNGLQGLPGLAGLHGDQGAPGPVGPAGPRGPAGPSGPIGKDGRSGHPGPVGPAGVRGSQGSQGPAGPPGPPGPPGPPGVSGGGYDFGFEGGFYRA

Binder | Kd [1] [nM] | Kd [2] [nM] | Kd [3] [nM] | Kd [4] [nM] | Kd [5] [nM]
B1 | 6 ± 1 | 115 ± 12 | 23 ± 3 | – | –
B2 | 7 ± 1 | 41 ± 3 | 4 ± 1 | 4 ± 1 | 8 ± 2
